Data as given in publication PMC6270503.
Where two headings read alike, the source gives them in different places.

How the values were obtained:
Assay in all cases: SPR; ProteON XPR36, GLC chip; BMP-2 immobilised by amine coupling (1000-2000 RU), CV2 VWC1 proteins as analytes in six concentrations; 25 °C, HBST500 (10 mM HEPES pH 7.4, 500 mM NaCl, 0.005% Tween20); global Langmuir 1:1 fit, KD = koff/kon, or from dose-dependency of equilibrium binding for weak or fast binders; apparent KD
[1] = target: E. coli derived recombinant human BMP-2 (human) (UniProt P12643)
Sequence of E. coli derived recombinant human BMP-2 (human) (P12643 283-396): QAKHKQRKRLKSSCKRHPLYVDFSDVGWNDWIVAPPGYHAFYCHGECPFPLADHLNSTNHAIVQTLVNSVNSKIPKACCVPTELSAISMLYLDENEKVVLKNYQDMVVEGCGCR

[2] = target: E. coli derived recombinant human BMP-2 (human) (UniProt P12643); remark: listed apart in the source
[3] = target: E. coli derived recombinant human BMP-2 (human) (UniProt P12643); remark: listed apart in the source

Kd [1]	koff [1]	koff [2]	kon [1]	Kd [3]	Substance
239 nM	> 0.05 s⁻¹	0.06 s⁻¹	–	–	CV2 VWC1 G4A (domain or fragment)
13 nM	0.0087 s⁻¹	–	650000 M⁻¹ s⁻¹	14 nM	VWC1 domain (von Willebrand type C domain 1) of Danio rerio Crossveinless 2, wildtype (domain or fragment)
13 nM	0.0095 s⁻¹	–	750000 M⁻¹ s⁻¹	–	CV2 VWC1 E10A (domain or fragment)
12 nM	0.0073 s⁻¹	–	630000 M⁻¹ s⁻¹	–	CV2 VWC1 E6P (domain or fragment)
13 nM	0.0012 s⁻¹	–	910000 M⁻¹ s⁻¹	–	CV2 VWC1 InsA10 (domain or fragment)
